Residue numbers refer to the chain shown, from its start. Names may count otherwise.
Assays:
[1] = T1 and T2 relaxivity measurements at 9.4 T (400 MHz NMR); assay type: physicochemical; details: for Holo/Apo % r1 Change / Holo/Apo % r2 Change: 37 °C; for r1 (Holo) / r2 (Holo) / r1 (Apo) / r2 (Apo): PBS buffer pH 7.4, 37 °C; for r1 (Holo) / r2 (Holo): with Gln; for r1 (Apo) / r2 (Apo): without Gln
Procedure: The effectiveness of a contrast agent depends on its “relaxivity”, which is measured in units of mM^−1 s^−1, and quantifies how much a given concentration of the contrast agent improves water relaxation rates. T1 and T2 relaxivities are denoted r1 and r2, respectively, and are calculated according to eqn (1):1 [drawing 1] Here, Ti and Ti^0 are the relaxation times in the presence and absence of the contrast agent, respectively, and [C] is the concentration of the contrast agent. […] The relaxivity of a contrast agent depends not only on the properties of the molecule but also on the strength of the magnetic field used for the measurement. Whereas early MRI instruments were relatively weak (<1 T), the modern clinical standard has risen to 1–3 T, wth an increasing number of even more powerful instruments (>3 T) in recent years. Thus, we performed relaxivity experiments at both the most clinically relevant field strengths 1.4 T and at the more cutting-edge field strength of 9.4 T.
10% D 2O (assay buffer). S tock solutions of swArM in assay buffer was prepared at1.11, 0.83, 0.56, and 0.28 mM. Apo- and holo-swArM samples were prepared from the same stock by adding either 20 μL assay buffer or 20 μL 0. 1 M Gln in assay buffer, to 180 μL of protein solution, respectively. Final protein concentrations were verified using the molar extinction coefficient ε28 0 = 25.9 mM -1 cm -1.
B. NM R M easu r ements . Relaxivities of all variants were determined at 37 °C from spectra taken at 9.4 T (400 mHz) using a Varian Inova 400 -MHz NMR spectrometer equipped with a Nalorac, 5 mm, DR probe. Select variants were also investigated at 32°C at 1.4 T (60 mHz) using a Nanalysis NMReady60 Pro instrument. Measurements were typically performed on 4 diffe rent concentrations of contrast agent and on the same buffer with no contrast agent. Temperature- dependent relaxivity measurements were performed using a Varian Inova 500-MHz NMR spectrometer, equipped with a Vari an, 5-mm, TR PFG probe with inverse proton detection. Temperature- dependent relaxivity was determined using either two concen trations of contrast agent ( 0. 5 and 1. 0 mM ) or t hree (0. 3, 0. 6, and 0.9 mM) . The temperature was calibrated using the 1H NMR signal of ethylene glycol.20 T1 measurements were performed using the inversion recovery method21 and T2 measurements were performed using the Carr–Purcell–Meiboom –G ill (CPMG) p ulse […]
Six or more pulse delay times (τ) were chosen to ensure coverage of the Ti under observation, and the delay between pulse sequences was set to at least 5-times T1.
Optimized 90° and 180° pulse widths were determined on the day of the experiment, and typically spanned 16‒2 0 μs (90° pulse width) and 32‒4 0 μs (180° pulse width). The delay in the CPMG pulse sequence was set to at least 50 times the 180° pulse width to allow at least four echo loops .
C. A n al ysi s . To determine Ti, data were analyzed via MestReNova software. For each spectrum, an integration was performed over the water peak, and the values obtained (dependent variable) were plotted against τ (independent variable). […]
then fit to a monoexponential decay according to Eq. 1. From these analyses, we obtain Ti for each sample concentration and type.
The quantity described by Eq. 2, where Ti at zero added sample is T0, was then plotted against the swArM concentration and a linear regression model was applied. The slope of this line gives the contrast agent relaxivity ri.

[2] = T1 and T2 relaxivity measurements at 1.4 T (60 MHz NMR); assay type: physicochemical; details: for Holo/Apo % r1 Change / Holo/Apo % r2 Change: 32 °C
[3] = free contrast agent control, PBS pH 7.4, 37 °C
[4] = PBS buffer pH 7.4, 32 °C, with Gln
[5] = PBS buffer pH 7.4, 32 °C, without Gln
[6] = listed as [Dy(DOTA-mal^N)]72-GlnBP

For `O=C([O-])CN1CCN(CC(=O)[O-])CCN(CC(=O)[O-])CCN(CC(=O)[O-])CC1.[Gd+3]` [Gd(DOTA), reference compound], the “+Gln/−Gln % r1 Change” value ([1]; free contrast agent control) was 0 ± 3%, the “+Gln/−Gln % r2 Change” value ([1]; free contrast agent control) was 1 ± 6% and the “r1 (+Gln)” value [1, 3] was 2.80 ± 0.07 mM⁻¹ s⁻¹. The “r1 (−Gln)” value [1, 3] was 2.82 ± 0.04 mM⁻¹ s⁻¹, the “r2 (+Gln)” value [1, 3] was 3.6 ± 0.2 mM⁻¹ s⁻¹ and the “r2 (−Gln)” value [1, 3] was 3.5 ± 0.1 mM⁻¹ s⁻¹.

B1: [Gd(DOTA-mal^N)]72: swArM: Gd(DOTA-mal^N) metallocofactor covalently attached at Cys72 of T72C E. coli glutamine-binding protein (GlnBP) (conjugate, UniProt P0AEQ3 23-248, looked up, variant T72C)
Glutamine-binding periplasmic …: ADKKLVVATDTAFVPFEFKQGDKYVGFDVDLWAAIAKELKLDYELKPMDFSGIIPALQTKNVDLALAGITICDERKKAIDFSDGYYKSGLLVMVKANNNDVKSVKDLDGKVVAVKSGTGSVDYAKANIKTKDLRQFPNIDNAYMELGTNRADAVLHDTPNILYFIKTAGNGQFKAVGDSLEAQQYGIAFPKGSDELRDKVNGALKTLRENGTYNEIYKKWFGTEPK
modifications: Gd(DOTA-malN) at Cys72
In the case of B1, the “Holo/Apo % r1 Change” value [1] is reported as “–1 ± 2%”, the “Holo/Apo % r2 Change” value [1] is reported as 20 ± 5% and the “r1 (Holo)” value [1] is reported as 4.32 ± 0.07 mM⁻¹ s⁻¹. For the same molecule, the “r2 (Holo)” value [1] was 43.2 ± 0.8 mM⁻¹ s⁻¹, the “r1 (Holo)” value ([1]; listed as [Gd(DOTA-malN)]72) was 4.32 mM⁻¹ s⁻¹ and the “r1 (Apo)” value [1] was 4.35 ± 0.07 mM⁻¹ s⁻¹. For the same molecule, the “r2 (Apo)” value [1] was 36 ± 1 mM⁻¹ s⁻¹, the “r1 (Apo)” value ([1]; listed as [Gd(DOTA-malN)]72) was 4.35 mM⁻¹ s⁻¹ and the “Holo/Apo % r1 Change” value [2] was 4 ± 2%. For the same molecule, the “Holo/Apo % r2 Change” value [2] was 11 ± 2%, the “r1 (Holo)” value [2, 4] was 20.4 ± 0.3 mM⁻¹ s⁻¹ and the “r2 (Holo)” value [2, 4] was 41.5 ± 0.4 mM⁻¹ s⁻¹. The “r1 (Holo)” value ([2]; PBS buffer pH 7.4, 32 °C, with Gln, listed as [Gd(DOTA-malN)]72) was 20.4 mM⁻¹ s⁻¹, the “r1 (Apo)” value [2, 5] was 19.5 ± 0.4 mM⁻¹ s⁻¹ and the “r2 (Apo)” value [2, 5] was 37.2 ± 0.7 mM⁻¹ s⁻¹. The “r1 (Apo)” value ([2]; PBS buffer pH 7.4, 32 °C, without Gln, listed as [Gd(DOTA-malN)]72) was 19.5 mM⁻¹ s⁻¹.

B2: [Dy(DOTA-mal^N)]72: swArM: Dy(DOTA-mal^N) attached at Cys72 of T72C-GlnBP (conjugate, UniProt P0AEQ3 23-248, looked up, variant T72C)
Glutamine-binding periplasmic …: B1 Glutamine-binding periplasmic …
modifications: Dy(DOTA-malN) at Cys72
notes: swArM: Dy(DOTA-mal^N) attached at Cys72 of T72C-GlnBP
In the case of B2, the “Holo/Apo % r1 Change” value [1] is reported as “–1 ± 5%”, the “Holo/Apo % r2 Change” value [1] is reported as 36 ± 3% and the “r1 (Holo)” value [1] is reported as 0.37 ± 0.02 mM⁻¹ s⁻¹. For the same molecule, the “r2 (Holo)” value [1, 6] was 9.3 ± 0.1 mM⁻¹ s⁻¹, the “r1 (Apo)” value [1] was 0.37 ± 0.01 mM⁻¹ s⁻¹ and the “r2 (Apo)” value [1] was 6.83 ± 0.04 mM⁻¹ s⁻¹. The “r1 (Apo)” value ([1]; listed as [Dy(DOTA-malN)]72) was 0.37 mM⁻¹ s⁻¹, the “r2 (Apo)” value [1, 6] was 6.86 ± 0.08 mM⁻¹ s⁻¹ and the r1 value ([1]; apo/holo not specified) was “below the practical detection limit”. For the same molecule, the “Holo/Apo % r1 Change” value [2] was 4 ± 5%, the “Holo/Apo % r2 Change” value [2] was 40 ± 20% and the “r1 (Holo)” value [2, 4] was 0.201 mM⁻¹ s⁻¹. The “r1 (Apo)” value [2, 5] was 0.176 mM⁻¹ s⁻¹.

B3: [Dy(DOTA-malN)]72-G119K: swArM: Dy(DOTA-mal^N) on T72C/G119K double variant of GlnBP (conjugate, UniProt P0AEQ3 23-248, looked up, variant T72C G119K)
Glutamine-binding periplasmic …: B1 Glutamine-binding periplasmic … with G119K
modifications: Dy(DOTA-malN) at Cys72
notes: swArM: Dy(DOTA-mal^N) on T72C/G119K double variant of GlnBP
For B3, the “Holo/Apo % r2 Change” value [1] was 15 ± 4%, the “r2 (Holo)” value [1] was 8.5 ± 0.2 mM⁻¹ s⁻¹ and the “r2 (Apo)” value [1] was 7.39 ± 0.07 mM⁻¹ s⁻¹.

B4: [Dy(DOTA-malC)]72-A126Y: swArM: Dy(DOTA-mal^C), linker on carbon of carboxylate arm, on T72C/A126Y GlnBP (conjugate, UniProt P0AEQ3 23-248, looked up, variant T72C A126Y)
Glutamine-binding periplasmic …: B1 Glutamine-binding periplasmic … with A126Y
modifications: Dy(DOTA-malC) at Cys72
notes: swArM: Dy(DOTA-mal^C), linker on carbon of carboxylate arm, on T72C/A126Y GlnBP
With B4 the “r2 (Holo)” value [1] was 9.6 ± 0.2 mM⁻¹ s⁻¹ and the “r2 (Apo)” value [1] was 9.7 ± 0.1 mM⁻¹ s⁻¹.

B5: [Gd(DOTA-malN)]72-Q183K: swArM: Gd(DOTA-mal^N) on T72C/Q183K double variant of GlnBP (conjugate, UniProt P0AEQ3 23-248, looked up, variant T72C Q183K)
Glutamine-binding periplasmic …: B1 Glutamine-binding periplasmic … with Q183K
modifications: Gd(DOTA-malN) at Cys72
notes: swArM: Gd(DOTA-mal^N) on T72C/Q183K double variant of GlnBP
In the case of B5, the “r2 (Holo)” value [1] is reported as 28.2 ± 0.8 mM⁻¹ s⁻¹ and the “r2 (Apo)” value [1] is reported as 30.9 ± 0.2 mM⁻¹ s⁻¹.

From PMC12699829, “Development of a glutamine-responsive MRI contrast agent” (Chemical Science, 2025)
